Data published in US20110217237A1 (AbbVie / Abbott, published 2011).
Numbering of substitutions follows the chain as printed. Where two headings read alike, the source gives them in different places.

B1: h1A11.2 (antibody, V domains shown)
VH: EVQLVESGGGLVQPGGSLRLSCAASGFTFSNFPMAWVRQAPGKGLEWVATISSSDGTTYYRDSVKGRFTISRDNAKNSLYLQMNSLRAEDTAVYYCARGYYNSPFAYWGQGTLVTVSS
VL: DIQMTQSPSSLSASVGDRVTITCRASEDIYSNLAWYQQKPGKSPKLLIFDTNNLADGVPSRFSGSGSGTDSTLTISSLQPEDFATYFCQQYNNYPPTFGQGTKLEIKR
notes: humanized IgG; also called VH.1/VL.1a 1A11
B2: h1A11.H2 (antibody, V domains shown)
VH: B1 VH with S30G, A35S, T50S, G56S, T57W, T58A, Y59T, Y60I, R61G, Y107F
VL: DIQMTQSPSSLSASVGDRVTITCRASQEIYRNLAWYQQKPGKSPKLLIFDTSVLADGVPSRFSGSGSGTDSTLTISSLQPEDFATYYCQQYTYYPPTFGQGTKLEIK
notes: also called h1A11.H2 VH / h1A11.E12 VL
B3: h1A11.A8 (antibody, V domains shown)
VH: B1 VH with S30G, A35S, T50S, G56S, T57W, T58A, Y59T, Y60I, R61G, A97S
VL: B2 VL with Q27E, E28D, R31S, S43A, F49Y, S52N, V53N, S71F, T92N, Y93N
notes: also called h1A11.A8 VH / h1A11VL.1
B4: h1A11.E12 (antibody, V domains shown)
VH: B1 VH with S30R, N31Y, S53G, G56E, T57W, T58P, Y59N, Y107F
VL: B2 VL
notes: also called h1A11.E12 VH / h1A11.E12 VL
B5: h1A11.A11 (antibody, V domains shown)
VH: B1 VH with S30R, N31H, G56D, T57W, T58P, Y59N, N77S, A97S
VL: B2 VL with Q27E, E28D, R31S, S43A, F49Y, S52N, V53N, S71F, T92N, Y93N
notes: also called h1A11.A11 VH / h1A11VL.1

Experiments:
[1] = target: T1, human DLL4 extracellular domain (human, UniProt Q9NR61 27-529); test: binding ELISA
T1 construct: purified recombinant ECD; biotin-labelled or 6xHis-tagged depending on the assay; also called huDLL4 ECD; hu DLL4 ECD
T1 sequence (Q9NR61 27-529 limits assumed): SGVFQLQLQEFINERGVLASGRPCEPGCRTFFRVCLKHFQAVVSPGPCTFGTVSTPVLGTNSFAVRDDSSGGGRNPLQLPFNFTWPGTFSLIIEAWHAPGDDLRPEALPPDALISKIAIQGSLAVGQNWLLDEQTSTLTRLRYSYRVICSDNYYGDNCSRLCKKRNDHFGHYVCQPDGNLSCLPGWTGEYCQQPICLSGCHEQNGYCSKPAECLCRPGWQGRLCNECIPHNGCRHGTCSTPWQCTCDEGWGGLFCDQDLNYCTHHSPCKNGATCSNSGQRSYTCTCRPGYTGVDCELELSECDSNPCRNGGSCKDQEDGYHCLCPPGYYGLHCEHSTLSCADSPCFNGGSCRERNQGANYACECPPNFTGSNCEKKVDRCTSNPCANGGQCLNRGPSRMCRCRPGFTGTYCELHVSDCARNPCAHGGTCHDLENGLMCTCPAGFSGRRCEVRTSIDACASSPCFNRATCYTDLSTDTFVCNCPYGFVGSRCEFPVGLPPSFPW
Procedure: (§1) Plates were then washed 3 times. 100 μl/well of recombinant rat/human chimeric or recombinant human anti-DLL4 antibodies were then added to the plate (0.00164-27 nM, 4-fold serial dilution in ELISA buffer=PBST, 10% Superblock (Pierce #37515)) for 1 hour at 25° C. with shaking and then washed again 3 times. Plates were incubated with goat anti-human HRP (Pierce #31412) (1:40,000 dilution in ELISA buffer, 100 μl/well) for 1 hour at 25° C. with shaking, then washed 3 times. After the final wash, plates were incubated with 100 μl/well ELISA substrate (Sigma #T8665). The reaction was stopped after 8 minutes at 25° C. with 100 μl/well 1N HCl and the absorbance was read at 450 nm. Data were analyzed using Graphpad Prism software, and EC50 values were reported.
(§2) Purified variants were further characterized for their affinities for human, murine and cynomolgus DLL4 by binding ELISA (Example 1.2, Method 2), by Biacore (Example 1.1), and by Flow Cytometry (FACS). […] The humanized variants were then tested for their functionality with human and murine DLL4 by competition ELISA (Example 1.3) and by Notch reporter assay (Example 1.6).

[2] = target: T2, mouse DLL4 extracellular domain (mouse, UniProt Q9JI71 27-532); test: binding ELISA
T2 construct: extracellular domain; also called muDLL4 ECD; murine DLL4
T2 sequence (Q9JI71 27-532): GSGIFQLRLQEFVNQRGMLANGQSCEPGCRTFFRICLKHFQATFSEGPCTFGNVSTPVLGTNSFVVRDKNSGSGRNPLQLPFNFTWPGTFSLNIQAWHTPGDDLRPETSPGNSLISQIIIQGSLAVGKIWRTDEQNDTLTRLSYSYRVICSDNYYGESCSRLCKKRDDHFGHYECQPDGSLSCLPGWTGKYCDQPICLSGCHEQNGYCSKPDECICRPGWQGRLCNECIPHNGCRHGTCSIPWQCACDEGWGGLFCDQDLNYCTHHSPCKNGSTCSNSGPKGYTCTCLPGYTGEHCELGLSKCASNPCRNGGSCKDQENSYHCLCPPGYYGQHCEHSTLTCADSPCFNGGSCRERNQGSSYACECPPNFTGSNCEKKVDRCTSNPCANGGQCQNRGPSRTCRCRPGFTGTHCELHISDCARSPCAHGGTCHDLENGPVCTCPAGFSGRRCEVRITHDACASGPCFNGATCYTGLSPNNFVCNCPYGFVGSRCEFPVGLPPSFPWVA
Procedure: as §1, §2

[3] = target: T3, cynomolgus monkey DLL4 extracellular domain (cynomolgus monkey); test: binding ELISA
T3 construct: extracellular domain; also called cynoDLL4 ECD; Cyno DLL4
Procedure: as §1, §2

[4] = target: T1, human DLL4 extracellular domain; test: SPR (Biacore)
Procedure: (§3) The BIACORE® surface plasmon resonance assay (Biacore, Inc., Piscataway, N.J., US) determines the affinity of antibodies with kinetic measurements of on-rate and off-rate constants. Binding of DLL4 antibodies to a purified recombinant DLL4 extracellular domain (ECD) was determined by surface plasmon resonance-based measurements with a Biacore® instrument (either a Biacore 2000, Biacore 3000, or Biacore T100; GE Healthcare, Piscataway, N.J., US) using running buffer HBS-EPB (10 mM HEPES [pH 7.4], 150 mM NaCl, 3 mM EDTA, 0.1 mg/ml BSA and 0.005% surfactant P20) at 25° C. For example, approximately 9000 RU of goat anti-human Fc specific polyclonal antibody (Thermo Fisher Scientific Inc., Rockford, Ill., US) diluted in 10 mM sodium acetate (pH 4.5) is directly immobilized across a CMS research grade biosensor chip using a standard amine coupling kit according to manufacturer's instructions and procedures at 25 μg/ml. Unreacted moieties on the biosensor surface were blocked with ethanolamine. For kinetic analysis, rate equations derived from the 1:1 Langmuir binding model were fitted simultaneously to multiple antigen injections (using global fit analysis) with the use of Scrubber 2 (BioLogic Software), Biacore Biaevaluation 4.0.1 software or Biacore T100 Evaluation software. Purified antibodies were diluted in running buffer for capture across goat anti-human Fc reaction surfaces. Antibodies to be captured as a ligand (1 μg/ml) were injected over reaction matrices at a flow rate of 10 μl/min. During the assay, all measurements were referenced against the capture surface alone (i.e., with no captured anti-DLL4 antibody). […] The equilibrium dissociation constant KD (M) of the reaction between antibodies and the target antigen was then calculated from the kinetic rate constants by the following formula: KD=Koff/Kₒₙ. Binding was recorded as a function of time and kinetic rate constants were calculated.

[5] = target: T2, mouse DLL4 extracellular domain; test: SPR (Biacore)
Procedure: as §3

mouse DLL4 on cells [6] = target: T4, mouse DLL4 on cells (mouse, UniProt Q9JI71 27-686); test: FACS, DLL4 cells
T4 construct: whole, on cells; also called mouse DLL4-293G; mu DLL4 cells
T4 sequence (Q9JI71 27-686): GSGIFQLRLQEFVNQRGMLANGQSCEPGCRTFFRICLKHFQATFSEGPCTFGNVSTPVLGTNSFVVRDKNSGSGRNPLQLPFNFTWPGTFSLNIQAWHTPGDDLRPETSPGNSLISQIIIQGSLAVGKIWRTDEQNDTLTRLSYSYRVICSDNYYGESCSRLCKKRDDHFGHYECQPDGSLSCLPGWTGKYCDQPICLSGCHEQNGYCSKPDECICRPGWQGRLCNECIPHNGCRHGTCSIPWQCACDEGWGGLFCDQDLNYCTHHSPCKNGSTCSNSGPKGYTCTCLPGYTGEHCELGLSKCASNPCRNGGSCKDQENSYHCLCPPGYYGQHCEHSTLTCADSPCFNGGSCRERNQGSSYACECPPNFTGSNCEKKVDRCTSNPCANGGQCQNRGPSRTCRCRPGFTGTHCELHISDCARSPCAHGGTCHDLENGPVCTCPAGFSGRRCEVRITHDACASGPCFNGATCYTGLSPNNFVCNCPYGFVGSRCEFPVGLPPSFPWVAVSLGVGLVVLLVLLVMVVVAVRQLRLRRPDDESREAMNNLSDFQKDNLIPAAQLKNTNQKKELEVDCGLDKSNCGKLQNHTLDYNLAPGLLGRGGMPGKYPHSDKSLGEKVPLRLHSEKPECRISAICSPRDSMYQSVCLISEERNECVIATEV

[7] = target: T5, human DLL4, full length, on cells (human, UniProt Q9NR61 27-685); test: FACS, DLL4 cells
T5 construct: also called huDLL4 cells; human DLL4-293G
T5 sequence (Q9NR61 27-685 limits assumed): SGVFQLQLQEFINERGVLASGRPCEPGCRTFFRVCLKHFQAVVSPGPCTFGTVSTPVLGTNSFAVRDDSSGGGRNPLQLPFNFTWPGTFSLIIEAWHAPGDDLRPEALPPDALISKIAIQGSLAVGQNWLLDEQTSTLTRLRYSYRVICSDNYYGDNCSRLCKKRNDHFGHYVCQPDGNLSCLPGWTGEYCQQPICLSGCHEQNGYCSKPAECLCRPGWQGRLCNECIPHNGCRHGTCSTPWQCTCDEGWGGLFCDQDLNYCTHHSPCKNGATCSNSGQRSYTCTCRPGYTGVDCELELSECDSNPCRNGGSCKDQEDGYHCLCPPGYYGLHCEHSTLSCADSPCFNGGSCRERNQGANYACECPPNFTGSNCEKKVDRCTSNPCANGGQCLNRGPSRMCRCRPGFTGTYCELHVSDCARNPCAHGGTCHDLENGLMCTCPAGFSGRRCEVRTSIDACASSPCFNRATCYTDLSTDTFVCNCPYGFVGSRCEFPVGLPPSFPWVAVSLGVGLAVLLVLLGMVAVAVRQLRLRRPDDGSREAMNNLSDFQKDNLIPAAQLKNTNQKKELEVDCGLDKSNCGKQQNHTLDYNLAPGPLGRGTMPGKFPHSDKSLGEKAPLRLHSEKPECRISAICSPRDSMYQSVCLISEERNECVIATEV

[8] = target: T5, human DLL4, full length, on cells; test: cell-based or functional assay
[9] = target: T1, human DLL4 extracellular domain; test: competition ELISA vs Notch-1
Procedure: (§4) Plates were then washed 3 times with wash buffer (PBS, 0.05% Tween-20) and blocked with 200 μl/well blocking buffer (D-PBS, 1% BSA, 1 mM CaCl₂, 0.05% Tween-20) for 1 hour at 25° C. While blocking, biotin labeled DLL4 extracellular domain (14 nM) was mixed with antibody (30 pM-66 nM, 3-fold serial dilution in blocking buffer) for 1 hour at 25° C. with shaking. Assay plates were washed after blocking, and incubated with DLL4/antibody mixtures (100 μl/well, 1 hour at 25° C. with shaking). Plates were washed again and 100 μl/well streptavidin conjugated with HRP (Fitzgerald #65R-S104PHRPx, diluted 1:5,000 in blocking buffer) was added for 1 hour at 25° C. with shaking. After a final wash, plates were developed using 100 μl/well substrate (TMB Sigma #T8665), and the reaction was stopped using 100 μl/well 1N HCl, and the absorbance was read at 450 nm. Data were analyzed using Graphpad Prism software and IC₅₀ values were reported as the concentration of antibody to achieve 50% reduction of DLL4 bound to Notch1.
as §2

[10] = target: T2, mouse DLL4 extracellular domain; test: competition ELISA vs Notch-1
Procedure: as §4, §2

mouse DLL4 on cells [11] = target: T4, mouse DLL4 on cells; test: cell-based or functional assay
[12] = target: T5, human DLL4, full length, on cells; test: cell-based or functional assay; remark: listed apart in the source
mouse DLL4 on cells [13] = target: T4, mouse DLL4 on cells; test: FACS, direct binding to DLL4 cells
Procedure: (§5) Stable cell lines overexpressing cell-surface DLL4 were harvested from tissue culture flasks, washed four times and resuspended in phosphate buffered saline (PBS) containing 1% bovine serum albumin and 1 mM CaCl₂ (FACS buffer). 1.5×10⁵ cells were incubated with antibodies at various concentrations in FACS buffer for 60 minutes on ice. […] Following an incubation on ice (4° C., 60 minutes), cells were washed three times and resuspended in FACS buffer. Fluorescence was measured using a Becton Dickinson FACSCalibur-HTS (Becton Dickinson, San Jose, Calif., US). Data were analyzed using Graphpad Prism software and EC₅₀ values were reported as the concentration of antibody to achieve 50% of maximal DLL4 antibodies binding to DLL4 expressing cells.
(§6) The hu1A11.1 affinity matured clones (Table 22) were expressed, purified, and further characterized in vitro. Their activities of binding to cell-bound DLL4 and inhibiting cell-bound DLL4-induced Notch activation were further examined using methods described in Examples 1.3 and 1.6, and are summarized in Table 26 (below).

[14] = target: T5, human DLL4, full length, on cells; test: FACS, direct binding to DLL4 cells
Procedure: as §5, §6

[15] = target: T1, human DLL4 extracellular domain; test: SPR (Biacore); remark: listed apart in the source
Summary of the method: (§7)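 Purified anti-DLL4 antibodies (1 μg/ml) captured on immobilized goat anti-human Fc, with DLL4 ECD injected as analyte; HBS-EPB running buffer (pH 7.4), 25° C, referenced against capture-only surface. On/off rates from global 1:1 Langmuir fit; KD = Koff/Kon.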

[16] = target: T3, cynomolgus monkey DLL4 extracellular …; test: SPR (Biacore)
Summary of the method: as §7

[17] = target: T2, mouse DLL4 extracellular domain; test: SPR (Biacore); remark: listed apart in the source
Summary of the method: as §7

[18] = target: T6, rat DLL4 extracellular domain (rat, UniProt D3ZHH1 28-530); test: SPR (Biacore)
T6 construct: extracellular domain; also called ratDLL4 ECD
T6 sequence (D3ZHH1 28-530): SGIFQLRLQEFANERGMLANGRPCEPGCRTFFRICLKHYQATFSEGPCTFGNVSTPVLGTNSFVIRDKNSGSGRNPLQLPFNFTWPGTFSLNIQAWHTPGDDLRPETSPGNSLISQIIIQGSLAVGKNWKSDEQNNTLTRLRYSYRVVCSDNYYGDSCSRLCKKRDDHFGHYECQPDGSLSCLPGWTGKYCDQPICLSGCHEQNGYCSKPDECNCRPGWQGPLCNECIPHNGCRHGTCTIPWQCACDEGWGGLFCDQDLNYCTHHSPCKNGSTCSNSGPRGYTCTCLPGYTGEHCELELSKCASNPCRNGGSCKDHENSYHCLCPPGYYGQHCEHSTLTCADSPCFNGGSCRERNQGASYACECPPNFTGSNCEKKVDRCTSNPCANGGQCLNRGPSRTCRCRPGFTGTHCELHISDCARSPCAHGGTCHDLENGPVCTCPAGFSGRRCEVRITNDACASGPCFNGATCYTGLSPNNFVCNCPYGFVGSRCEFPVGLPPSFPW
Summary of the method: as §7

Row | Binder | Inhibition of Notch Activation via DLL4 cells, Notch reporter assay (mouse DLL4 on cells [11]) | Inhibition of Notch Activation via DLL4 cells, Notch reporter assay [12] | EC50 (mouse DLL4 on cells [13]) | EC50 [14] | Kd [15] | koff [15] | kon [15] | Kd [16] | koff [16] | kon [16] | Kd [17] | koff [17] | kon [17] | Kd [18] | koff [18] | kon [18] | also measured
1 | B1 |  |  |  |  |  |  |  |  |  |  |  |  |  |  |  |  | EC50 [1]: 0.08 nM; EC50 [2]: 0.09 nM; EC50 [3]: 0.13 nM; Kd [4]: 10 nM; Kd [5]: 19 nM; EC50 (mouse DLL4 on cells [6]): 0.21 nM; EC50 [7]: 2.85 nM; Reporter Assay (EC50, nM) [8]: 3.92 nM; IC50 [9]: 0.3 nM; IC50 [10]: 0.9 nM
2 | B2 | 0.586 nM | 0.856 nM | 0.42 nM | 1.98 nM | 0.27 nM | 3.85e-05 s⁻¹ | 143000 M⁻¹ s⁻¹ | 0.35 nM | 4.6e-05 s⁻¹ | 131000 M⁻¹ s⁻¹ | 0.33 nM | 5.07e-05 s⁻¹ | 154000 M⁻¹ s⁻¹ | 16 nM | 0.00283 s⁻¹ | 178000 M⁻¹ s⁻¹ | 
3 | B3 | 1.25 nM | 1.33 nM | 0.744 nM | 3.16 nM | 0.062 nM | 1.08e-05 s⁻¹ | 174000 M⁻¹ s⁻¹ | 0.15 nM | 2.4e-05 s⁻¹ | 160000 M⁻¹ s⁻¹ | 0.18 nM | 3.27e-05 s⁻¹ | 187000 M⁻¹ s⁻¹ | 47 nM | 0.0065 s⁻¹ | 139000 M⁻¹ s⁻¹ | 
4 | B4 | 0.266 nM | 0.208 nM | 1.61 nM | 0.996 nM | 0.22 nM | 3.26e-05 s⁻¹ | 149000 M⁻¹ s⁻¹ | 0.28 nM | 3.84e-05 s⁻¹ | 137000 M⁻¹ s⁻¹ | 0.35 nM | 5.44e-05 s⁻¹ | 156000 M⁻¹ s⁻¹ | 1.6 nM | 0.000175 s⁻¹ | 108000 M⁻¹ s⁻¹ | 
5 | B5 | 1.18 nM | 0.904 nM | 0.5 nM | 2.48 nM | 0.15 nM | 2.66e-05 s⁻¹ | 183000 M⁻¹ s⁻¹ | 0.2 nM | 3.35e-05 s⁻¹ | 170000 M⁻¹ s⁻¹ | 0.18 nM | 3.54e-05 s⁻¹ | 198000 M⁻¹ s⁻¹ | 8.8 nM | 0.00102 s⁻¹ | 116000 M⁻¹ s⁻¹ | 
